Source: article PMC7615752, “The histone chaperone SPT2 regulates chromatin structure and function in Metazoa”

Target: T1, HsSPT2 WT (Homo sapiens, UniProt Q68D10 1-685)
T1 sequence: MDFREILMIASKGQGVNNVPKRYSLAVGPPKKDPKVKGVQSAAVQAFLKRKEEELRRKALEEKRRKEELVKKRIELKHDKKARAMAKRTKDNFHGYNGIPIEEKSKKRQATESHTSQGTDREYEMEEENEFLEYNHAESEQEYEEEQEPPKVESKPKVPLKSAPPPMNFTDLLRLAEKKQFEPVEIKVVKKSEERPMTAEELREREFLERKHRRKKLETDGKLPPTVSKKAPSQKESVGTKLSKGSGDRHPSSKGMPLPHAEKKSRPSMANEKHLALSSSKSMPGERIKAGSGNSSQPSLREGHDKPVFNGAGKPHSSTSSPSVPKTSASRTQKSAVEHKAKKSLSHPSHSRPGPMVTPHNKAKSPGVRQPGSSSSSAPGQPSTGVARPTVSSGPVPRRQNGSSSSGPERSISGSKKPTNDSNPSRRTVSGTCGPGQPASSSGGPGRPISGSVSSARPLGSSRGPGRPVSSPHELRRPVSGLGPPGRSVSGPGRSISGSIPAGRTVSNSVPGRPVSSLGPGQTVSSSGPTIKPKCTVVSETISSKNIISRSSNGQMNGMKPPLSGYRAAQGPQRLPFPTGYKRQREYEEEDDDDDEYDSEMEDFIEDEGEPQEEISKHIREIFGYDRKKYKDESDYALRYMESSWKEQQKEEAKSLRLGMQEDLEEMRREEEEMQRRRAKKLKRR
Test: EMSA; 1 mM EDTA; 10 nM DNA; 25 mM Tris-HCl pH 8.0, 55 mM NaCl, 1 mM EDTA, 1 mM DTT, 0.1 mg/ml BSA, 1% glycerol, 37 C 15 min; native 8% PAGE
Conditions: protein: recombinant; tags: His6; label: 5'-32P; four-way junction of 4 x 40 nt strands, each arm 20 bp

B1: synthetic cruciform DNA (four-way Holliday junction J3b/J3h/J3r/J3x(40)) (structured_DNA)
DNA 1: AGGGATCCGTCCTAGCAAGGGGCTGCTACCGGAAGCTTAC
DNA 2: GTAAGCTTCCGGTAGCAGCCTGAGCGGTGGTTGAATTCAC
DNA 3: GTGAATTCAACCACCGCTCAACTCAACTGCAGTCTAGAAC
DNA 4: GTTCTAGACTGCAGTTGAGTCCTTGCTAGGACGGATCCCT
B1: binds.
